From patent WO2011080050A2 (dated 2011)

T1: natural human CCL21 (secreted and isolated from transfected HEK-293T cells) (human, UniProt O00585 24-134)
T1 sequence: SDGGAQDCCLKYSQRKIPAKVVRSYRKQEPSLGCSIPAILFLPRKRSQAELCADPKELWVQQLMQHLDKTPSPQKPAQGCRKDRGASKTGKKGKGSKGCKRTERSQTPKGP

T2: cynomolgus monkey CCL21 (cynomolgus monkey, UniProt Q8HYP5 24-131 (rhesus entry))
T2 sequence: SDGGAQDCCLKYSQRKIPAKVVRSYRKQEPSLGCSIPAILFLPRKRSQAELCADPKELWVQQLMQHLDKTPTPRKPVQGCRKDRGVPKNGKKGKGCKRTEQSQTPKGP

T3: human CCL21 (human, UniProt O00585 24-134)
T3 sequence: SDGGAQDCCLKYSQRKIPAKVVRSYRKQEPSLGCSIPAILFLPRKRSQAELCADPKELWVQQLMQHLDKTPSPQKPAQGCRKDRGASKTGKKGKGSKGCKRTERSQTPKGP


Legend:
[1] = biological target: T1, natural human CCL21 (secreted and …); assay: cell-based or functional assay
[2] = biological target: T2, cynomolgus monkey CCL21; assay: cell-based or functional assay
[3] = biological target: T3, human CCL21; assay: cell-based or functional assay
[4] = biological target: CCL21 of the four chemotaxis assays (recombinant human, recombinant cynomolgus monkey, natural human); assay: cell-based or functional assay
[5] = biological target: T2, cynomolgus monkey CCL21; assay: SPR (Biacore T100), antibody captured on protein A, CCL21 as analyte, 1:1 model, two experiments
[6] = biological target: T3, human CCL21; assay: SPR (Biacore T100), antibody captured on protein A, CCL21 as analyte, 1:1 model, three experiments

| Binder | % inhibition of migration, natural hCCL21, H9 cells, 1:1 molar ratio (4th cell) [1] | % inhibition of migration, natural hCCL21, H9 cells, IgG at 2uM (4th cell) [1] | IC50, inhibition of natural hCCL21-mediated migration of H9 cells [1] | % inhibition of migration, recombinant cCCL21, H9 cells, 1:1 molar ratio (3rd cell) [2] | % inhibition of migration, recombinant cCCL21, H9 cells, IgG at 2uM (3rd cell) [2] | % inhibition of migration, recombinant hCCL21, H9 cells, 1:1 molar ratio (1st cell) [3] | % inhibition of migration, recombinant hCCL21, H9 cells, IgG at 2uM (1st cell) [3] | % inhibition of migration, recombinant hCCL21, primary human T cells, 1:1 molar ratio (2nd cell) [3] | % inhibition of migration, recombinant hCCL21, primary human T cells, IgG at 2uM (2nd cell) [3] | IC50, inhibition of recombinant hCCL21-mediated migration of H9 cells [3] | IC50, inhibition of CCL21-mediated calcium mobilization, cynomolgus monkey CCL21 on CHO-K1 cells with cynomolgus monkey CCR7 [2] | IC50, inhibition of CCL21-mediated calcium mobilization, cynomolgus monkey CCL21 on CHO-K1 cells with human CCR7 [2] | IC50, inhibition of CCL21-mediated calcium mobilization, human CCL21 on CHO-K1 cells with cynomolgus monkey CCR7 [3] | IC50, inhibition of CCL21-mediated calcium mobilization, human CCL21 on CHO-K1 cells with human CCR7 [3] | % inhibition of CCL21 mediated chemotaxis at 1:1 molar ratio, large scale batch, four assays [4] | IC50, inhibition of CCL21 mediated chemotaxis, large scale batch, four assays [4] | Kd [5] | kon [5] | Kd [6] | kon [6] |
| --- | --- | --- | --- | --- | --- | --- | --- | --- | --- | --- | --- | --- | --- | --- | --- | --- | --- | --- | --- | --- |
| MOR08382_g3-23_gL6 (antibody, human IgG1, kappa, V domains shown) VH: EVQLLESGGGLVQPGGSLRLSCAASGFTFSSYWLNWVRQAPGKGLEWVSYISNQGDDTSYADSVKGRFTISRDNSKNTLYLQMNSLRAEDTAVYYCARDYQYIGDSFDIWGQGTLVTVSS VL: EIVLTQSPATLSLSPGERATLSCRASQYVSYVSLAWYQQKPGQAPRLLIYDASNRATGIPARFSGSGSGTDFTLTISSLEPEDFAVYYCQQYDDLSYTFGQGTKVEIKR | 70% | 100% | 66 nM | 100% | 100% | 97% | 97% | 100% | 100% | 23.7 nM |  |  |  |  |  |  |  |  |  |  |
| MOR08389_g3-23_g3j (antibody, human IgG1, lambda, V domains shown) VH: EVQLLESGGGLVQPGGSLRLSCAASGFTFNSYSMSWVRQAPGKGLEWVSAISMEGYSKSYADSVKGRFTISRDNSKNTLYLQMNSLRAEDTAVYYCARGYGYYFDVWGQGTLVTVSS VL: SYELTQPLSVSVALGQTARITCGGDSIGSQYASWYQQKPGQAPVLVIYDDNERPSGIPERFSGSNSGNTATLTISRAQAGDEADYYCSSWDMDAVNVFGGGTKLTVLG | 82% | 100% | 34 nM | 100% | 100% | 94% | 94% | 100% | 100% | 54.1 nM |  |  |  |  |  |  |  |  |  |  |

The next lines start with the values.

| % inhibition of migration, natural hCCL21, H9 cells, 1:1 molar ratio (4th cell) [1] | % inhibition of migration, natural hCCL21, H9 cells, IgG at 2uM (4th cell) [1] | IC50, inhibition of natural hCCL21-mediated migration of H9 cells [1] | % inhibition of migration, recombinant cCCL21, H9 cells, 1:1 molar ratio (3rd cell) [2] | % inhibition of migration, recombinant cCCL21, H9 cells, IgG at 2uM (3rd cell) [2] | % inhibition of migration, recombinant hCCL21, H9 cells, 1:1 molar ratio (1st cell) [3] | % inhibition of migration, recombinant hCCL21, H9 cells, IgG at 2uM (1st cell) [3] | % inhibition of migration, recombinant hCCL21, primary human T cells, 1:1 molar ratio (2nd cell) [3] | % inhibition of migration, recombinant hCCL21, primary human T cells, IgG at 2uM (2nd cell) [3] | IC50, inhibition of recombinant hCCL21-mediated migration of H9 cells [3] | IC50, inhibition of CCL21-mediated calcium mobilization, cynomolgus monkey CCL21 on CHO-K1 cells with cynomolgus monkey CCR7 [2] | IC50, inhibition of CCL21-mediated calcium mobilization, cynomolgus monkey CCL21 on CHO-K1 cells with human CCR7 [2] | IC50, inhibition of CCL21-mediated calcium mobilization, human CCL21 on CHO-K1 cells with cynomolgus monkey CCR7 [3] | IC50, inhibition of CCL21-mediated calcium mobilization, human CCL21 on CHO-K1 cells with human CCR7 [3] | % inhibition of CCL21 mediated chemotaxis at 1:1 molar ratio, large scale batch, four assays [4] | IC50, inhibition of CCL21 mediated chemotaxis, large scale batch, four assays [4] | Kd [5] | kon [5] | Kd [6] | kon [6] | Binder |
| --- | --- | --- | --- | --- | --- | --- | --- | --- | --- | --- | --- | --- | --- | --- | --- | --- | --- | --- | --- | --- |
| 77% | 100% |  | 96% | 100% | 61% | 100% | 86% | 100% |  | 62 nM | 211 nM | 252 nM | 341 nM | 81 to 100% | 11 to 45 nM | 0.026 nM | 9.1e+07 M⁻¹ s⁻¹ | 0.03 nM | 6.8e+07 M⁻¹ s⁻¹ | MOR06935_g3-23_g3j (antibody, V domains shown, also called QBP359; FW repaired germlined MOR06935) VH: EVQLLESGGGLVQPGGSLRLSCAASGFTFNSYSMSWVRQAPGKGLEWVSAISMEGYSKSYADSVKGRFTISRDNSKNTLYLQMNSLRAEDTAVYYCARGYGYYFDVWGQGTLVTVSS VL: SYELTQPLSVSVALGQTARITCGGDSIGSQYASWYQQKPGQAPVLVIYDDNERPSGIPERFSGSNSGNTATLTISRAQAGDEADYYCGSWDSNPTHVFGGGTKLTVLG |
| 64% | 100% | 69 nM | 100% | 100% | 87% | 100% | 100% | 100% | 49.7 nM |  |  |  |  |  |  |  |  |  |  | MOR08378_g5-51_g2a2 (antibody, human IgG1, lambda, V domains shown) VH: EVQLVQSGAEVKKPGESLKISCKGSGYSFNNYWISWVRQMPGKGLEWMGIIDPTNSQTTYSPSFQGQVTISADKSISTAYLQWSSLKASDTAMYYCARDGYPIFDYWGQGTLVTVSS VL: QSALTQPASVSGSPGQSITISCTGTSSDLGGYNYVSWYQQHPGKAPKLMIYDVNYRPSGVSNRFSGSKSGNTASLTISGLQAEDEADYYCSSYTYYSNSGVFGGGTKLTVLG |
